Reference: patent publication US20140227251A1 (published 2014)

Molecular target: Human TNF-α (R&D Systems) (human, UniProt P01375 77-233, labeled with Alexa Fluor 647 in the FACS assays)
Experiment: Biacore

Chain of Human TNF-α (R&D Systems) (P01375 77-233): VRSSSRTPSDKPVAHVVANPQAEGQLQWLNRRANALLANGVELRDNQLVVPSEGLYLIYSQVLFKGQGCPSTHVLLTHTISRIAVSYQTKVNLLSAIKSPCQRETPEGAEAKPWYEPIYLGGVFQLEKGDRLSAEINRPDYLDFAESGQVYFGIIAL

Binder	Kd [nM]
D2E7 combination variant Y32K/SS-R30I (antibody, V domains shown) VH: not shown VL: DIQMTQSPSSLSASVGDRVTITCRASQSIINYLSWYQQKPGKAPKLLIYAASTLQSGVPSRFSGSGSGTDFTLTISSLQPEDVATYYCQRYNRAPYTFGQGTKVEIK	0.149
D2E7 combination variant Y32K/SS-R30T (antibody, V domains shown) VH: not shown VL: DIQMTQSPSSLSASVGDRVTITCRASQSITNYLSWYQQKPGKAPKLLIYAASTLQSGVPSRFSGSGSGTDFTLTISSLQPEDVATYYCQRYNRAPYTFGQGTKVEIK	0.13
